Test results reported in PMC5843810, “18th European Symposium on Radiopharmacy and Radiopharmaceuticals” (EJNMMI Radiopharmacy and Chemistry, 2016).
Primed or numbered codes have the meaning given here. Side-chain parts run from the residue outwards. [ ]: non-standard residue; d: D form. PEG7′ = not defined here; Pra = C#CC[C@H](N)C(=O)O; Tz = not defined here

T1: αvβ3 integrin receptors on tumor cells, P06756
T1 chain 1: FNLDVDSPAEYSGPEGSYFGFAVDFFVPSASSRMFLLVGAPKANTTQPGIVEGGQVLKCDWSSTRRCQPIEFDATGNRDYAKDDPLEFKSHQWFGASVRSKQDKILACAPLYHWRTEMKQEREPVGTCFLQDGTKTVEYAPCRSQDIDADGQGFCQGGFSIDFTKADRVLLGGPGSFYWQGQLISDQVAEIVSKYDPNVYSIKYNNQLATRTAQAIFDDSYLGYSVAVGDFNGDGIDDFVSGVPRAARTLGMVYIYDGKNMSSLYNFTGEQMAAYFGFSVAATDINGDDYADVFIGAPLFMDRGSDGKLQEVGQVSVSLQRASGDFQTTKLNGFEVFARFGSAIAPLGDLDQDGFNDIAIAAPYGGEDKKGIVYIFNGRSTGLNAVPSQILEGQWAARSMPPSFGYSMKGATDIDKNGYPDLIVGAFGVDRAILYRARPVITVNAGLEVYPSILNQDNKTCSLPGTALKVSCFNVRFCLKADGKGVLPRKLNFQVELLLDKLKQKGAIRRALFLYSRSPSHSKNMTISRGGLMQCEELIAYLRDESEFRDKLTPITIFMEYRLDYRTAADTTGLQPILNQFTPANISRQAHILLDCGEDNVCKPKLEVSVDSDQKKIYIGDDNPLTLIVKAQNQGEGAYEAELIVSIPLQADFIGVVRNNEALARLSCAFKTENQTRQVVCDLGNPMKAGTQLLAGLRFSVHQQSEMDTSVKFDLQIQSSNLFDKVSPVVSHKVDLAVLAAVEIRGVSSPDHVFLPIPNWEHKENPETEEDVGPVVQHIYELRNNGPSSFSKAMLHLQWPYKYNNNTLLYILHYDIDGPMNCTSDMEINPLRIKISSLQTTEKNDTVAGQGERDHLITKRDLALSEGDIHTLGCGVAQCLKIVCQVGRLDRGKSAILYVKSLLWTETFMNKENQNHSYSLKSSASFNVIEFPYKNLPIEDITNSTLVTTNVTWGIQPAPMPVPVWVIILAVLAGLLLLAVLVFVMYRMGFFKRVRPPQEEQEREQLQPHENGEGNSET
T1 chain 2: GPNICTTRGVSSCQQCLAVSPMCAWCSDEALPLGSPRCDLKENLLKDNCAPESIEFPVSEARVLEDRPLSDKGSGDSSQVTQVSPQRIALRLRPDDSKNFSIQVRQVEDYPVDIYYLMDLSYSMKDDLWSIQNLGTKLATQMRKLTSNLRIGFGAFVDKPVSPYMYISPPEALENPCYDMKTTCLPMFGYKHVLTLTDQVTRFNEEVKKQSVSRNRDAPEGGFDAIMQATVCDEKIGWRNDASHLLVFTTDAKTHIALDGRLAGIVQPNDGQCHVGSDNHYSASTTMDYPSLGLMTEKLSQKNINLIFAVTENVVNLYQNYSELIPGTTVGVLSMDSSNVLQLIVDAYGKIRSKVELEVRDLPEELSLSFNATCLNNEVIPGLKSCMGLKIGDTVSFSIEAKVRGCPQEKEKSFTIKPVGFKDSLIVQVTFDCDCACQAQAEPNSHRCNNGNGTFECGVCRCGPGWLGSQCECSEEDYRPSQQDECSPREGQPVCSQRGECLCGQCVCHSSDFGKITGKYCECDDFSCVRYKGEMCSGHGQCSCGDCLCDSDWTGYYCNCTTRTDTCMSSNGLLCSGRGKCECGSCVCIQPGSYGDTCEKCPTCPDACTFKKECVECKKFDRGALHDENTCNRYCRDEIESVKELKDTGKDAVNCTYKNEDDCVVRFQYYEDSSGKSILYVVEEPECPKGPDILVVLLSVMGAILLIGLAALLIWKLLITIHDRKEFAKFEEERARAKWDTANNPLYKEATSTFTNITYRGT


Experiments:
[1] = biological target: T1, αvβ3 integrin receptors on tumor cells, …; test: real-time quantification of cell binding with Ligand Tracer; 68Ga-labelled cyclo-RGD peptides on tumor cells (AR42J and U87MG named); conditions: remark: other sources report otherwise
[2] = biological target: RGD-recognising integrins; test: standard binding assay on cells (IC50); U-87 MG and SKOV-3 cancer models; the competing ligand is not named
[3] = biological target: integrin αvβ3 receptor of αvβ3-positive melanoma tumors in C57BL/6 mice (UniProt P43406)
[4] = biological target: RGD-recognising integrin receptors

IC50 [2]	tumor uptake in C57BL/6 mice bearing αvβ3-positive melanoma tumors, maximum at 30 min p.i. (30, 60, 180 min); reduced to 50-60% by cold cRGDfK peptide [3]	Binder	further results
		cyclo(RGD[dF]K) (also: two c(RGDfK) copies on a Glu core, DOTA chelator, 68Ga label) [68Ga-DOTA-E-[c(RGDfK)2]]	retention on cells [1]: < 58%
600 nM		cyclo(RGD[dF]V) [control c(RGDfV) peptide]	
	4.11 %ID/g	cyclo(RGD[dF]K([PEG7′-Tz-Pra])) (reading uncertain; also: 99mTc(CO)3 complex) [99mTc(CO)3-Pra-Tz-PEG7-cRGDfK]	
	3.01 %ID/g	cyclo(RGD[dF]K) (not fully specified (residue 5); also: 99mTc(CO)3 complex) [99mTc(CO)3-Pra-Tz-CH2-cRGDfK]	
3080 nM		cyclo(RGD[dF]K) (also: cysteine-modified, cysteine site not given here, FPyPEGCBT condensed with that cysteine, 18F in the tracer) [FPyPEGCBT-c(RGDfK)]	tumour uptake 1 h after injection in mice bearing subcutaneous SKOV-3 tumours [4]: 2.4 %ID/g; tumour uptake 1 h after injection in mice bearing subcutaneous U-87 MG tumours [4]: 2.9 %ID/g
